The supplement of paper PMC10567573

B1: ZNF511 (parent)
chain: YEHHYHTLHGNVCSFCKRAFPSGH

Variants of: B1
Assay: protein stability index of a GFP-peptide fusion (GPS, HEK-293T) (PSI 1-6); higher = more stable
Settings: c terminus: a fixed tail appended
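Also: lentivirally expressed fusions sorted by FACS into six bins by GFP to DsRed ratio, PSI derived from sequencing read proportions per bin multiplied by bin number.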

Variant	protein stability index
E2V	2.89
A19E	2.13
H4K	2.03
H4F	1.33
L8R	2.4
S14I	2.53
K17C	1.89
H4D	2.17
G10L	1.95
Y1M	2.63
F20H	3.37
L8P	2.43
Y5D	3.51
F20L	2.27
N11V	1.87
Y5P	3.04
V12T	2.44
H4P	2.38
G10K	2.76
C16K	2.35
S14G	1.88
V12Y	2.13
C16Q	2.26
Y5I	2.68

Variant	protein stability index
F15I	2.38
C16H	1.82
E2D	2.9
G23C	2.33
H3A	1.97
F20Y	2.25
K17V	1.87
H6T	1.94
Y5S	3.01
G10F	1.78
Y1I	2.89
C16P	2.02
H24W	2.43
Y5G	3.54
P21K	1.9
T7C	2.77
H3P	2.8
H4T	1.95
T7N	2.09
P21I	2.29
C13Y	1.78
E2W	2.85
K17E	2.59
P21Y	1.77

Variant	protein stability index
R18N	2.37
C16R	2.17
E2F	3.12
H6Y	1.83
H9Y	2
H24T	2.24
Y5R	2.62
L8G	2.52
H9A	1.93
F15Q	3.25
H3V	2.09
S22W	1.47
G23W	1.62
S22V	1.84
S14P	3.3
Y1D	3.67
N11R	2.62
G23N	2.51
H9F	1.68
G23Y	1.97
G10T	2.13
Y5Q	3.28
H9N	2.49
N11S	1.95

Variant	protein stability index
H4W	1.73
K17F	1.84
H4S	2.43
V12W	2.14
H6S	1.92
A19K	2.11
H24N	2.39
A19C	2.19
H24R	2.08
E2G	2.9
H6G	1.69
H6A	1.88
E2P	1.54
K17A	2.23
T7F	2.06
G23P	2.27
N11K	2.31
F20R	2.12
H9G	2.24
S22E	2.44
H24A	2.13
R18L	2.17
G23I	1.86
Y1A	3.02

Variant	protein stability index
E2C	2.15
S22F	2.15
S14H	2.31
L8E	2.65
P21A	2.6
F15G	2.93
P21F	2.13
T7I	2.31
Y1L	2.75
F15A	2.76
V12K	2
K17H	2.18
R18C	1.89
K17M	1.77
A19H	2.85
G23V	1.61
Y1C	4.05
G10M	2.01
F15Y	2.31
F20K	2.64
H24D	2.35
R18F	1.94
Y5W	2.32
L8D	2.57

Variant	protein stability index
C13T	1.97
S14Y	3.38
V12F	2.05
F20N	3.13
Y1G	2.99
C13L	1.5
G23H	1.38
R18A	2.06
V12D	3.41
F15T	2.99
E2K	1.76
S22C	2.69
C13F	1.5
H24E	2.57
V12P	2.31
F15K	2.21
Y1E	3
V12S	2.41
N11H	2.21
H3C	3.57
H4V	1.91
A19T	2.29
H6C	2.6
R18K	2.23

Variant	protein stability index
F20W	2.42
H3T	2.91
H3F	2.06
A19Y	2.25
K17N	2.18
L8H	2.92
F15P	2.01
F20V	2.58
R18Q	1.53
E2H	2.66
V12C	2.02
F15C	3.02
C16W	1.62
G10A	2.23
G10W	2.29
K17I	1.84
H24L	2.02
F15W	2.96
Y5H	3.22
P21T	2.38
C16F	1.99
S22A	2.08
N11I	1.83
C13M	1.83

Variant	protein stability index
A19D	2.42
H4C	3.26
H24I	1.78
G23S	2.7
H6V	2.51
L8V	2.74
N11M	2.68
H3M	1.94
A19S	2.28
C13S	2.22
P21N	1.97
R18M	1.96
H3W	2.12
F20D	3.27
S22I	2.24
F20M	2.38
H3D	3.06
S22L	2.87
E2Q	2.43
Y5C	3.95
H9R	2.48
L8Q	2.62
V12H	2.4
C13W	1.52

Variant	protein stability index
H6I	2.15
V12A	2.44
N11G	2.12
K17L	2.4
K17G	2.61
A19R	2.37
T7L	2.28
G23T	2.16
F15L	2.32
L8S	2.23
Y1R	2.22
H4A	1.75
H3L	2.13
C13R	2.17
S14A	2.94
K17S	2.22
C13H	1.9
P21C	3.6
F15E	2.79
F20S	2.96
R18D	2.46
H24G	2.09
H6D	2.34
S14W	2.53

Variant	protein stability index
S14M	2.3
H9W	1.83
S14K	2.3
H24V	2.25
F20G	2.82
E2L	1.65
H4E	2.7
G10Q	1.78
F20Q	2.37
H9T	2.16
P21H	2.32
F15N	2.72
L8N	2.67
C16G	2
V12N	2.73
S14N	2.57
E2R	1.8
G23Q	1.93
C13K	2.04
H3G	3.04
Y1W	2.07
V12R	2.24
R18Y	2.24
S14L	2.04

Variant	protein stability index
S22H	2.99
H4R	1.73
S22R	2.03
T7D	2.64
A19F	2.84
P21M	2.57
C13A	2.18
K17W	1.3
S22N	3.01
H6P	1.68
H3K	2.27
Y1N	3.38
R18W	1.79
N11D	2.75
L8A	2.47
H24P	2.08
H9L	1.5
Y1V	2.51
G23M	1.92
V12E	3.67
Y5K	2.54
S22T	2.27
T7Y	2.09
C13G	2.54

Variant	protein stability index
C13P	2.11
E2N	1.37
F20E	2.4
P21R	1.91
H6W	1.66
H6L	1.72
T7A	1.95
T7S	1.72
G23K	2.01
H9D	1.97
C16S	1.71
H24M	2.17
C13E	2.36
H9P	2.72
H9E	1.93
C16D	2.17
N11W	2.17
Y5V	3.47
K17D	2.5
N11A	2.64
E2M	2.08
Y5L	2.48
H4Y	1.93
H6N	2.33

Variant	protein stability index
E2Y	2.27
F20T	2.68
G10S	1.97
H9M	2.06
N11F	2.6
A19M	2.29
G23R	1.98
A19V	1.99
K17R	2.2
Y5M	2.39
N11C	2.73
F15D	2.48
H6M	1.6
N11Q	2.2
F20A	2.41
Y1Q	3.62
G23E	1.86
N11L	1.77
A19N	2.37
S22K	1.8
H4Q	2.1
H4N	2.23
G10C	2.46
S14E	2.53

Variant	protein stability index
H6Q	1.88
S14D	2.4
P21V	2.34
C13I	2.6
F20I	2.23
T7W	1.75
E2S	3.32
C16T	2.4
L8Y	2.6
E2T	3.14
T7Q	1.9
L8F	2.62
P21W	1.61
S22D	2.33
S22G	2.02
Y1T	2.75
C13N	2.67
H24C	2.07
F15M	2.54
V12I	2.3
G10Y	2.46
R18P	2.87
